{"source": "paper PMC3212032", "key": {"[1]": {"molecular_target": "HIV-1 integrase F185K (pNY strain) (human immunodeficiency virus type-1 (pNY strain))", "test": "SEC"}, "[2]": {"molecular_target": "HIV-1 integrase F185K (pNY strain) (human immunodeficiency virus type-1 (pNY strain))", "test": "SEC", "remark": "listed apart in the source"}, "[3]": {"molecular_target": "wt HIV-1 integrase (pNY strain) (human immunodeficiency virus type-1 (pNY strain))", "test": "cross-linking"}, "[4]": {"molecular_target": "wt HIV-1 integrase (pNY strain) (human immunodeficiency virus type-1 (pNY strain))", "test": "SEC"}, "[5]": {"molecular_target": "wt HIV-1 integrase (pNY strain) (human immunodeficiency virus type-1 (pNY strain))", "test": "cross-linking", "remark": "listed apart in the source"}, "[6]": {"molecular_target": "wt Rous sarcoma virus integrase (286 residues) (Rous sarcoma virus)", "test": "SEC"}, "[7]": {"molecular_target": "wt Rous sarcoma virus integrase (286 residues) (Rous sarcoma virus)", "test": "SEC", "remark": "listed apart in the source"}}, "note": "Several values for one entry are separate records, joined by “and”; a condition that tells them apart may be missing. Equal entries are not always repeated. Where two headings read alike, the source gives them in different places.", "data": [{"substance": "HIV-1 integrase F185K (pNY strain) (enzyme)", "values": [{"measurement": "percent converted to tetramers", "setting": "[1]", "result": 65, "unit": "%"}, {"measurement": "stoichiometry N", "setting": "[1]", "result": "2 and 4"}, {"measurement": "stoichiometry N", "setting": "[2]", "result": 2}]}, {"substance": "wt HIV-1 integrase (pNY strain) (enzyme)", "values": [{"measurement": "stoichiometry N", "setting": "[3]", "result": 2}, {"measurement": "stoichiometry N", "setting": "[4]", "result": 4}, {"measurement": "stoichiometry N", "setting": "[5]", "result": "2 and 3 and 4"}]}, {"substance": "wt Rous sarcoma virus integrase (286 residues) (enzyme)", "values": [{"measurement": "stoichiometry N", "setting": "[6]", "result": "2 and 4"}, {"measurement": "stoichiometry N", "setting": "[7]", "result": "2 and 4"}]}]}
